Data taken from US20150203575A1 (Genentech, published 2015).

B1: mPILRα-Fc (Fc fusion)
chain: not shown
notes: also called mouse PILRα-Fc; WT mPILRα-Fc; not shown: Fc of mouse IgG2a (PILRα-mIgG2a, called PILRα-Fc)
B2: mPILRαR133A-Fc (Fc fusion)
chain: not shown
notes: Arg mutant of mPILRα-Fc; also called mPILRα133A-Fc; variant mPILRα (R133A); not shown: Fc of mouse IgG2a (PILRα-mIgG2a, called PILRα-Fc)

Experiments:
MAG expressed on cells = molecular target: T1, MAG expressed on cells (human, UniProt P20916 20-626); experiment: flow cytometry, transfected 293T cells, 50 µg/ml
T1 construct: Clone of the Origene human cDNA library; also called Myelin associated glycoprotein; SIGLEC4A
T1 sequence: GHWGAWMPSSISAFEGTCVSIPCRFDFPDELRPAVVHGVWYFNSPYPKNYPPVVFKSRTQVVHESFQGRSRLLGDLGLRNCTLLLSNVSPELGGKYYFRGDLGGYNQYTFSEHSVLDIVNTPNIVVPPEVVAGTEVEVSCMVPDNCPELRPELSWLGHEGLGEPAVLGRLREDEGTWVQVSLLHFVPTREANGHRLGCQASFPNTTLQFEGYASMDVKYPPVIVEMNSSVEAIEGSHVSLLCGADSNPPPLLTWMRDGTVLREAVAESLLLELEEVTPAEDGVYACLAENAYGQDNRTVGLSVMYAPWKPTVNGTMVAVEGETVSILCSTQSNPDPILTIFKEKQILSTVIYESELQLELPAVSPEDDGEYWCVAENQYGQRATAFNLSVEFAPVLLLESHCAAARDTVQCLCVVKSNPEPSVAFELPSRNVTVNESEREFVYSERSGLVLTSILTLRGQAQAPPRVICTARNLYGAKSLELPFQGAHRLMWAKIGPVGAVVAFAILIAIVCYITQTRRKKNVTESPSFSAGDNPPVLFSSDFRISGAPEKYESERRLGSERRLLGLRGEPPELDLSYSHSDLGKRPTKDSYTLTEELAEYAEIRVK

[1] = molecular target: T2, IL-2Ra expressed on cells (human, UniProt P01589 22-272); experiment: flow cytometry, transfected 293T cells, 2 µg/ml
T2 construct: Clone of the Origene human cDNA library; also called Interleukin 2 receptor alpha
T2 sequence: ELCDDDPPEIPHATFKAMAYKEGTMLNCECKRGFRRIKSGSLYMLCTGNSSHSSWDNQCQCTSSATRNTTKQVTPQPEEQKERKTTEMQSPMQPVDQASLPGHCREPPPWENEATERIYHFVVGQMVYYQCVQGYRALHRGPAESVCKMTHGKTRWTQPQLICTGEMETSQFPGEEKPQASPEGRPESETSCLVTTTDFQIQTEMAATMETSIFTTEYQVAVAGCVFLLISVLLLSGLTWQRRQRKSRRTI

PSS8 expressed on cells = molecular target: T3, PSS8 expressed on cells (human, UniProt Q16651 30-343); experiment: flow cytometry, transfected 293T cells, 2 µg/ml
T3 construct: Clone of the Origene human cDNA library; also called Protease serine 8; prostasin

BR3 expressed on cells [2] = molecular target: T4, BR3 expressed on cells (human, UniProt Q96RJ3 1-184); experiment: flow cytometry, transfected 293T cells, 2 µg/ml
T4 construct: Clone of the Origene human cDNA library
T4 sequence: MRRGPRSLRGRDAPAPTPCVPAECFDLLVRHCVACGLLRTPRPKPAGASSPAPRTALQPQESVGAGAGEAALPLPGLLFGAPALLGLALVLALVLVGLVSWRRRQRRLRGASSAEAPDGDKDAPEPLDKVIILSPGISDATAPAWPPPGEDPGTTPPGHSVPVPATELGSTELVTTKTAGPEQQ

BR3 expressed on cells [3] = molecular target: T4, BR3 expressed on cells; experiment: flow cytometry, transfected 293T cells, 50 µg/ml
[4] = molecular target: T5, mouse CD99 expressed on 293T cells (mouse, UniProt Q8VCN6 29-175, sialylated O-glycans at Thr-45 and Thr-50 (cited as relevant for PILRα recognition)); experiment: flow cytometry, transfected 293T cells, 2 µg/ml; 293T-Neo: 0
T5 construct: whole, on cells; also called mCD99; mCD99 transfectants
T5 sequence (looked up): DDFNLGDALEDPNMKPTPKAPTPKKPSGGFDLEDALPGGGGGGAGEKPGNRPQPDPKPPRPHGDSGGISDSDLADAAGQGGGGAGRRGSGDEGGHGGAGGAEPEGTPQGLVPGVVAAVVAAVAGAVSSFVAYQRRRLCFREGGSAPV

[5] = molecular target: T6, human NPDC1 expressed on cells (human, UniProt Q9NQX5 35-325); experiment: as above
T6 construct: also called hNPDC1; hNPCD1
T6 sequence: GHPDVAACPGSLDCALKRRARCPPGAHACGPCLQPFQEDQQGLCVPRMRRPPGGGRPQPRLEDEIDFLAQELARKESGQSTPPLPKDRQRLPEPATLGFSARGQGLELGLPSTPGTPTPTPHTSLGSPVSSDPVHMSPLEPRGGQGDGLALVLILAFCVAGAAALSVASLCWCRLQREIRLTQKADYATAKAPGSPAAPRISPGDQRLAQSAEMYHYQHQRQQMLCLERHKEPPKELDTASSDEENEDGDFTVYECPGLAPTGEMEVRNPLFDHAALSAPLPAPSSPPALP

[6] = molecular target: T7, human COLEC12 expressed on cells (human, UniProt Q5KU26 1-742); experiment: as above
T7 construct: also called hCOLEC12; C-terminal his tagged hCOLEC12

[7] = molecular target: T5, mouse CD99 expressed on 293T cells; experiment: flow cytometry, transfected 293T cells, ligand-expressing cells gated
[8] = molecular target: T8, HSV1 glycoprotein B expressed on 293T cells (herpes simplex virus type 1, UniProt P10211 31-904); experiment: as above
T8 construct: whole, on cells; also called HSV-1 gB; HSV1 gB

[9] = molecular target: T6, human NPDC1 expressed on cells; experiment: as above
[10] = molecular target: T7, human COLEC12 expressed on cells; experiment: as above

T7 sequence (Q5KU26 whole entry S522P/G606S): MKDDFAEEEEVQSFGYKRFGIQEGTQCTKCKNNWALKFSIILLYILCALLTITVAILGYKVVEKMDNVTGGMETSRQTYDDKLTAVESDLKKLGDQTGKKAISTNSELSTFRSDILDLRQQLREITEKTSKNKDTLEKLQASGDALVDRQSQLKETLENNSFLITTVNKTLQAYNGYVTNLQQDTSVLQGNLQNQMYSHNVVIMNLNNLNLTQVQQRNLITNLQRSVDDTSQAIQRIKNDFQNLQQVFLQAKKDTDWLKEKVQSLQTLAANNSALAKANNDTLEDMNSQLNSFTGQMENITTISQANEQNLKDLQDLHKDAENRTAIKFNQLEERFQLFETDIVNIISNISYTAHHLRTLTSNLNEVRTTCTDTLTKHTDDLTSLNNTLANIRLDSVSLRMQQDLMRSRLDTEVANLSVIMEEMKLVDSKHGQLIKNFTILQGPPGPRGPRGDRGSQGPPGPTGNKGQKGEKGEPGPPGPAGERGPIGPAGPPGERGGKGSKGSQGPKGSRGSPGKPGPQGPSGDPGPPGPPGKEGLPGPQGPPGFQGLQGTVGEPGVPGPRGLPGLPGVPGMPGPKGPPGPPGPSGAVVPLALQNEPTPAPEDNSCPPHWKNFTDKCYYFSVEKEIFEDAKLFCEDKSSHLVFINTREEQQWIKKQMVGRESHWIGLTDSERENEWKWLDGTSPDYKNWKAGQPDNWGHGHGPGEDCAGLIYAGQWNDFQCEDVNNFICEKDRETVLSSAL
T3 sequence (Q16651 30-343 limits assumed): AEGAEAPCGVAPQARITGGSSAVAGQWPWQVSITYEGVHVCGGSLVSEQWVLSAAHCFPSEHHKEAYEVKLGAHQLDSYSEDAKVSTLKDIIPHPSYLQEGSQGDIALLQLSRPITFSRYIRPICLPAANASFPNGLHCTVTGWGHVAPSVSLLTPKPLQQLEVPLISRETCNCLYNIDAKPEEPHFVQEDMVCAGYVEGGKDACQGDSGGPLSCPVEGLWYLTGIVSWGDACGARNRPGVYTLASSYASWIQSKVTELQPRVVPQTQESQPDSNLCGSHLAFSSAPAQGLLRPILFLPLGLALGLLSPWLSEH

Row | Binder | % cells in lower right quadrant (MAG expressed on cells) [%] | % cells in lower right quadrant [1] [%] | % cells in lower right quadrant (PSS8 expressed on cells) [%] | % cells in lower right quadrant (BR3 expressed on cells [2]) [%] | % cells in lower right quadrant (BR3 expressed on cells [3]) [%] | % cells in lower right quadrant [4] [%] | % cells in lower right quadrant [5] [%] | % cells in lower right quadrant [6] [%] | binding result [7] | binding result [8] | binding result [9] | binding result [10]
1 | B1 | 0.55 | 14.1 | 0.024 | 34.1 | 53.3 | 34 | 29.6 | 0.082 |  |  |  | 
2 | B2 |  |  |  |  |  |  |  |  | no binding | no binding | no binding | no binding
